The text below walks through data of paper PMC6321462.

The target of the test is actin from rabbit skeletal muscle (G-actin polymerized to F-actin) (rabbit) (UniProt P68135).

Sequence of MBP-DRR1 dC (recombinant murine DRR1 lacking the C-terminal domain, MBP fusion) (domain or fragment) (Q78TU8 whole entry, the tested form may be a part): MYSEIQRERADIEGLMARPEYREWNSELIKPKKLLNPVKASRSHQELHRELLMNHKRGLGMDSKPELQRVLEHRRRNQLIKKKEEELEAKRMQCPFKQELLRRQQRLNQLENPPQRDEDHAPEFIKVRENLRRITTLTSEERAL

With “MBP-DRR1 dC (recombinant murine DRR1 lacking the C-terminal domain, MBP fusion) (domain or fragment)”, the barbed end filament elongation rate in the presence of profilin (1.5 µM), TIRF microscopy, R = 0.5 was 36 % of control.
